The values that follow come from patent US20050119186A1, “Potent peptide inhibitors and methods of use” (priority 2003, published 2005).

Positions of bridges follow the written chain, without caps; N, C: chain ends. Residues, ends and D or L forms follow the SMILES beside them. No end group written: not given here.

T1 sequence (P05362 28-532): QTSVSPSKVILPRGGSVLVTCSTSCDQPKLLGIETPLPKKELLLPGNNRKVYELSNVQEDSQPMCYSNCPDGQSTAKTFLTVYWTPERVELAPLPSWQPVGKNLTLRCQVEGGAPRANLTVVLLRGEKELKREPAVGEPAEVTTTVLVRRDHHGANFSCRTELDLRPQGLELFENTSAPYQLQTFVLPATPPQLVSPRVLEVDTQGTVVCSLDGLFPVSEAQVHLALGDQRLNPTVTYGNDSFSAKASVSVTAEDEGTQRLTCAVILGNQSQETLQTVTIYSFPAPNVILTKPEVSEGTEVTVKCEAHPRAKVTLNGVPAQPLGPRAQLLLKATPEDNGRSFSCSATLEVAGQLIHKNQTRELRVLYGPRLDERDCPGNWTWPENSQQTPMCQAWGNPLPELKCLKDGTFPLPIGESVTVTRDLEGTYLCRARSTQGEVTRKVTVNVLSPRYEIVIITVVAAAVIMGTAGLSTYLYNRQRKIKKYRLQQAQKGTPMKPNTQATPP
T2 sequence (P05362 28-532): as above

The first assay addresses T1, intercellular adhesion molecule-1 (ICAM-1) (human, UniProt P05362 28-532). The assay can be described thus: cell-based or functional assay.
Details: not given
As to CILKMRSVC (disulfide 1-9) [Table 7 peptide 10, CILKMRSVC (SEQ ID NO:10)], the “Actual IC50 value (µm), cellular assays” value is 28 µM. Regarding CASKMRSAC (disulfide 1-9) [Table 7 peptide 2, CASKMRSAC (SEQ ID NO:2)], the “Actual IC50 value (µm), cellular assays” value was found to be 23 µM.

Another assay addresses T2, ICAM-1/LFA-1 (Homo sapiens, UniProt P05362).
T2 construct: endogenous in cells
The assay can be described thus: cellular aggregation blocking assay (LFA-1/ICAM-1 dependent cell aggregation). Particulars: Table 1; class by experimental IC50; read-out: Inhibitor strength. It is filed as cell-based. The source says: The inhibitory compound tested was a cyclic peptide containing nine amino acids that bind to ICAM-1, thereby inhibiting LFA-1/ICAM-1 binding. Using alanine replacement and homologous amino acid substitutions, we identified residues strategic to the antagonist activity were identified. A small set of such derived peptides was used as a training set for the inverse-QSAR. The activity or potency of the peptides is associated with an IC50 value, which measures the concentration that leads to half-maximal inhibition of receptor to ligand. Table 1, below, lists the amino acid sequence of sixteen such derived peptides with their IC50 values (given in μM), determined using a cellular aggregation blocking assay (J. Shannon, D. C. Brown, M. Silva, R. S. Larson, A cyclic peptide inhibits LFA-1/ICAM-1 mediated cell aggregation, J. Pept. Res. (2001) 1-14, L. Sillerud, E. Burks, D. C. Brown, R. S. Larson, NMR-derived solution model of potent ICAM-1 inhibitory peptide, J. Pept. 62 (2003) 97-116).
In brief, the aggregation of a cell line dependent on LFA-1 binding to ICAM-1 was used to measure the inhibitory capacity of each peptide. Inhibitory peptides and cells were seeded in flat-bottomed microtiter plates and allowed to aggregate. The number of aggregates and total number of free (single) cells were counted using inverted phase microscopy. The percent aggregation, P, was determined as P=100(1−F/I) (1) where F is the final number of free cells and I is the initial number of free cells. This percent aggregation was then used to calculate the percent inhibition, Pi as follows Pi=100(1−Pip/Pc) (2) where Pip is the percent aggregation with inhibitory peptide and Pc is the percent aggregation in the control experiment. The IC50 values were calculated from a line fit to the percent inhibition data as a function of inhibitory peptide concentration over the range from 10 μM to 1 mM. Each condition was performed in duplicate while each experiment was performed a minimum of three times.
With `CC[C@H](C)[C@@H]1NC(=O)[C@H](CC(C)C)NC(=O)[C@@H](N)CSSC[C@@H](C(=O)O)NC(=O)[C@H](C)NC(=O)[C@H](CO)NC(=O)[C@H](CCCNC(=N)N)NC(=O)[C@H](CCSC)NC(=O)[C@H](CCCNC(=N)N)NC1=O` [Peptide 4] (H-CLIRMRSAC-OH; disulfide 1-9), the IC50 was 500 to 1000 µM. Same read-out and setting: next, `CC[C@H](C)[C@@H]1NC(=O)[C@@H](N)CSSC[C@@H](C(=O)O)NC(=O)[C@H](C)NC(=O)[C@H](CO)NC(=O)[C@H](CCCCN)NC(=O)[C@H](CCSC)NC(=O)[C@H](CCCCN)NC(=O)[C@H](CC(C)C)NC1=O` [Peptide 16] (H-CILKMKSAC-OH; disulfide 1-9): no more than 500 µM.

The assay is the same for the next values; noted with them: Table 1; peptide 10 μM to 1 mM; inhibition of cell aggregation; read-out: Experimental IC50.
As to `CC[C@H](C)[C@@H]1NC(=O)[C@H](CC(C)C)NC(=O)[C@@H](N)CSSC[C@@H](C(=O)O)NC(=O)[C@H](C)NC(=O)[C@H](CO)NC(=O)[C@H](CCCNC(=N)N)NC(=O)[C@H](CCSC)NC(=O)[C@H](CCCNC(=N)N)NC1=O` [Peptide 4] (H-CLIRMRSAC-OH; disulfide 1-9), the IC50 was 720 µM.

Still in this assay, the particulars now being: strongest inhibitor in the training set; read-out: IC50 value.
`CC[C@H](C)[C@@H]1NC(=O)[C@@H](N)CSSC[C@@H](C(=O)O)NC(=O)[C@H](C)NC(=O)[C@H](CO)NC(=O)[C@H](CCCCN)NC(=O)[C@H](CCSC)NC(=O)[C@H](CCCCN)NC(=O)[C@H](CC(C)C)NC1=O` [Peptide 16] (H-CILKMKSAC-OH; disulfide 1-9): the IC50 was determined as 40 µM.

The target in the next assay is T1, intercellular adhesion molecule-1 …. The assay can be described thus: cell-based or functional assay.
Details: not given
This is another data set of the same source.
As for CVLRMRSAC (disulfide 1-9) [Table 1 peptide 3, CVLRMRSAC (SEQ ID NO:23)], the “Experimental IC50 (µM), cellular aggregation blocking assay” value (“Experimental IC50 (µM)” for short) was greater than 1000 µM.

With CLARMRSIC (disulfide 1-9) [Table 1 peptide 12, CLARMRSIC (SEQ ID NO:32)], the “Experimental IC50 (µM)” value is greater than 1000 µM.

As to CLLRMASIC (disulfide 1-9) [Table 1 peptide 14, CLLRMASIC (SEQ ID NO:34)], the “Experimental IC50 (µM)” value was greater than 1000 µM. Take CLLRMKSAC (disulfide 1-9) [Table 1 peptide 7, CLLRMKSAC (SEQ ID NO:27)]: the “Experimental IC50 (µM)” value is 90 µM. Still for that read-out and setting: the figure for CLLRMRSVC (disulfide 1-9) [Table 1 peptide 9, CLLRMRSVC (SEQ ID NO:29)] is 700 µM; for CLLRMRSLC (disulfide 1-9) [Table 1 peptide 8, CLLRMRSLC (SEQ ID NO:28)] it is greater than 1000 µM.

Take CLLRMRSAC (disulfide 1-9) [Table 1 peptide 1, CLLRMRSAC (SEQ ID NO:21)]: the “Experimental IC50 (µM)” value came out at 480 µM. CILKMKSAC (disulfide 1-9) [Table 1 peptide 16, CILKMKSAC (SEQ ID NO:36)]: the “Experimental IC50 (µM)” value is 40 µM. With CLLRMRAIC (disulfide 1-9) [Table 1 peptide 15, CLLRMRAIC (SEQ ID NO:35)], the “Experimental IC50 (µM)” value was found to be 710 µM.

With CLLRMRSIC (disulfide 1-9) [Table 1 peptide 10, CLLRMRSIC (SEQ ID NO:30)], the “Experimental IC50 (µM)” value came to 580 µM.

Take CLLKMRSAC (disulfide 1-9) [Table 1 peptide 6, CLLKMRSAC (SEQ ID NO:26)]: the “Experimental IC50 (µM)” value amounted to 105 µM. Same read-out and setting: next, CLIRMRSAC (disulfide 1-9) [Table 1 peptide 4, CLIRMRSAC (SEQ ID NO:24)]: 720 µM. Same read-out and setting: the figure for CALRMRSIC (disulfide 1-9) [Table 1 peptide 11, CALRMRSIC (SEQ ID NO:31)] is greater than 1000 µM; for CLVRMRSAC (disulfide 1-9) [Table 1 peptide 5, CLVRMRSAC (SEQ ID NO:25)] it is greater than 1000 µM.
